Test system: PM vascular system
Test: In vivo pupillary membrane (PM) angiogenesis assay in rat pups, transcorneal injection
Set-up: species or system Sprague-Dawley rat
Settings: after 24 hours
Procedure: A Sprague-Dawley rat pup, available from Taconic Farms (German Town, N.Y.), aged postconception (p.c.) day 30.5 to p.c. 34.5, was subdued with metaphane and subsequently anaesthetized with an intramuscular injection of ketamine and xylazine at 1.6 mg/g and […] respectively. The depth of anesthesia was monitored by paw pinch response and where necessary, the subject pup was maintained under anesthesia with additional doses of ketamine and xylazine intraperitoneally. The right eyelid of the rat pup was parted at the suture using a microdissecting vanna (Storz, St Louis), the eyeball gently raised, and the eyelids folded underneath to permit illumination of the eye with optic fibre light guides. The local anesthetic tetracaine hydrochloride (0.5%) was applied to the eyeball prior to parting of the eyelids. The rat pup was then placed in a silastic body mold designed to reduce movement, and kept warm with an overlaid heating element from a battery powered boot warmer (L. L. Bean, Maine). The liquid phase for the water immersion microscope objective was provided by addition of a bead of phosphate-buffered saline between the eyeball and the objective. Capillaries of the pupillary membrane were readily detected by searching through the focal axis. An eye holder as shown in FIG. 1 held the eyeball to limit movement, and to illuminate the interior of the eye.
A 5× air objective of a Zeiss Axiophot microscope (Zeiss, Thornwood, N.Y.) was positioned above the cornea of an anaesthetized rat. A beveled glass needle mounted on a micromanipulator was axially apposed to the eye holder and in this position could penetrate the cornea for delivery of the test substance directly onto the pupillary membrane.
A defined volume of a test substance was delivered to the anterior chamber using a Nanoject Variable injector (Drummond, Pa.).
After the predetermined period of angiogenic progress, the rat pup was humanely sacrificed. The treated PM was prepared as a whole mount specimen by dissecting the retina, sclera, choroid and cornea away from the lens, iris diaphragm, hyaloid vessels and pupillary membrane. The latter tissue group was then fixed overnight in 2% glutaraldehyde in 0.1 M cacodylate pH 7.4, 0.1 M sucrose. After fixation, the tissue was washed in buffer alone and dehydrated in an ethanol series (50%, 70%, 80%, 90%, 95% and 100%). The specimens where then treated for 1 hour in hexamethyldisilazane (Polysciences Inc. Pennsylvania) and then air dried overnight. After drying, they were mounted and sputter coated with approximately 100 angstroms of gold-palladium. Specimens were visualized using a JOEL SEM 840 scanning electron microscope.
The angiogenic effect on the cellular/vascular PM system was observed and recorded with imaging and recording means. […]

B1: Ang2: biotinylated recombinant human Ang2, available from Calbiochem (protein, UniProt O15123 19-496, looked up)
Angiopoietin-2: YNNFRKSMDSIGKKQYQVQHGSCSYTFLLPEMDNCRSSSSPYVSNAVQRDAPLEYDDSVQRLQVLENIMENNTQWLMKLENYIQDNMKKEMVEIQQNAVQNQTAVMIEIGTNLLNQTAEQTRKLTDVEAQVLNQTTRLELQLLEHSLSTNKLEKQILDQTSEINKLQDKNSFLEKKVLAMEDKHIIQLQSIKEEKDQLQVLVSKQNSIIEELEKKIVTATVNNSVLQKQQHDLMETVNNLLTMMSTSNSAKDPTVAKEEQISFRDCAEVFKSGHTTNGIYTLTFPNSTEEIKAYCDMEAGGGGWTIIQRREDGSVDFQRTWKEYKVGFGNPSGEYWLGNEFVSQLTNQQRYVLKIHLKDWEGNEAYSLYEHFYLSSEELNYRIHLKGLTGTAGKISSISQPGNDFSTKDGDNDKCICKCSQMLTGGWWFDACGPSNLNGMYYPQRQNTNKFNGIKWYYWKGSGYSLKATTMMIRPADF
modifications: biotin
notes: biotinylated recombinant human Ang2, available from Calbiochem
increase in the width of flattened vessels present in the whole mount preparations (rat pups A5, Ang2 10 nanograms/ml anterior chamber, compared to the control): 2.1 fold
staining by HU177 antibody (collagen remodeling of the basal lamina of the PM) (rat pups A5, Ang2 10 nanograms/ml anterior chamber, control showed no staining): significant staining
number of mitotic cells in the PM blood vessels (rat pups A5, injection into anterior chamber (VEGF 1 nanogram/ml; Ang2 10 nanograms/ml), compared to the control (un-injected eye)): significant increase
diameter of capillary vessels (rat pups A5, injection into anterior chamber (VEGF 1 nanogram/ml; Ang2 10 nanograms/ml; anti-Tie2 50 nanograms/ml), compared to the control): dramatic increase

— patent US7488573B2, “In vivo angiogenesis assay” (Children's Hospital Medical Center, priority 2002, dated 2009)
